The source of these data is publication PMC12520519, “RESP2: An Uncertainty Aware Multi‐Target Multi‐Property Optimization AI Pipeline for Antibody Discovery” (Advanced Science, 2025).

This assay has as its target T1, receptor binding domain (RBD) of the SARS-CoV-2 spike protein, Delta variant (SARS-CoV-2, Delta (B.1.617.2), strain).
T1 construct: also called Delta RBD; source: bought: Acro Biosystems
The assay can be described thus: flow cytometry on cells. The settings on record: one partner purified.

B1: Delta-6 scFv (scFv, V domains shown)
VH: EVQLLESGGGLVQPGGTLRLSCAASGFIVSSNYMSWVRQAPGKGLEWVSLVYPGGSTYYADSVKGRFTVSRDNSKNTLYLQMNSLRAEDMAVYYCARDLPSGVDAVDAFDIWGQGTMVTVSS
VL: DIRVTQSPSSLSASVGDRVSITCRASQIISGYLNWYQQKPGSAPQLLIYASSSLQSGVPPRFSGSRSGTEFTLTISSLQPEDFATYYCQQTYSIPFTFGPGTKVDIK
notes: also called WT Delta-6 scFv; starting clone
Regarding B1, the Kd – broadly, the concentration at which binding is half-saturated – is 1.3 nM.
